# Read-outs that look alike come from different tables or passages of the source.
# Tests used:
# [1] = target: α1B-1α2bβ1-2 human neuronal calcium channel (human) (UniProt Q02641); test: Bmax of 125I-ω-CgTx GVIA binding, against α1B-2α2bβ1-2
# [2] = target: α1B-2α2bβ1-3 human neuronal calcium channel (human) (UniProt Q02641); test: as above
# [3] = target: α1B-1α2bβ1-2 human neuronal calcium channel (human) (UniProt Q02641); test: Bmax of 125I-ω-CgTx GVIA binding, against α1B-1β1-2
# [4] = target: α1B-1β1-2 human neuronal calcium channel subunit combination (human) (UniProt Q02641); test: Bmax of 125I-ω-CgTx GVIA binding, against α1B-1 alone
# α1B-1β1-2 human neuronal calcium channel subunit combination (human), sequence (Q02641 whole entry): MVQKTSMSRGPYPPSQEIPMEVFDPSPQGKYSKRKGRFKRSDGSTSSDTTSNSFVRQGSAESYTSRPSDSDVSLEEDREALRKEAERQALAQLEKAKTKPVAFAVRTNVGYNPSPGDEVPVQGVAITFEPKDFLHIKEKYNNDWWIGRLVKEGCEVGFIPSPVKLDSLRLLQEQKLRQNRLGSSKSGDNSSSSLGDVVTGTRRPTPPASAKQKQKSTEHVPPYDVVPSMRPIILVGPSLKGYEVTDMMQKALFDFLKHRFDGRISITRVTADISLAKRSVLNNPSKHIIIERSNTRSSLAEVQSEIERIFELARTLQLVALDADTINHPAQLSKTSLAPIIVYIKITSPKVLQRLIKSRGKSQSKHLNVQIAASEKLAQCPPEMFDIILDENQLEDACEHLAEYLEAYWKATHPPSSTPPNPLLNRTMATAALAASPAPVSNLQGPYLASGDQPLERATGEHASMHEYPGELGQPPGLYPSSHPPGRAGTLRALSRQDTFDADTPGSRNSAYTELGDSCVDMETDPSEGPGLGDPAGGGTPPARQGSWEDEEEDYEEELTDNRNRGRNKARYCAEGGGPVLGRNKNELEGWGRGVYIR
# [5] = target: α1B-1β1-3 human neuronal calcium channel subunit combination (human) (UniProt Q02641); test: as above
# α1B-1β1-3 human neuronal calcium channel subunit combination (human), sequence (Q02641 whole entry): as above
# [6] = target: α1B-2α2bβ1-3 human neuronal calcium channel (human) (UniProt Q02641); test: Bmax of 125I-ω-CgTx GVIA binding, against α1B-2β1-3
# [7] = target: α1B-2α2bβ1-2 human neuronal calcium channel (human) (UniProt Q02641); test: saturation binding of 125I-ω-CgTx GVIA to transfected HEK293 cells
# α1B-2α2bβ1-2 human neuronal calcium channel (human), sequence (Q02641 whole entry): as above
# [8] = target: α1B-2β1-2 human neuronal calcium channel subunit combination (human) (UniProt Q02641); test: as above
# α1B-2β1-2 human neuronal calcium channel subunit combination (human), sequence (Q02641 whole entry): as above
# [9] = target: α1B-2β1-3 human neuronal calcium channel subunit combination (human) (UniProt Q02641); test: as above
# α1B-2β1-3 human neuronal calcium channel subunit combination (human), sequence (Q02641 whole entry): as above
# [10] = target: α1B-1α2bβ1-2 human neuronal calcium channel (human) (UniProt Q02641); test: as above
# [11] = target: α1B-1β1-2 human neuronal calcium channel subunit combination (human) (UniProt Q02641); test: as above
# [12] = target: α1B-2α2bβ1-3 human neuronal calcium channel (human) (UniProt Q02641); test: as above
# [13] = target: α1B-1β1-3 human neuronal calcium channel subunit combination (human) (UniProt Q02641); test: as above
# [14] = target: α1B-1α2bβ1-3 human neuronal calcium channel (human) (UniProt Q02641); test: as above
# α1B-1α2bβ1-3 human neuronal calcium channel (human), sequence (Q02641 whole entry): as above
# [15] = target: α1B-1α2bβ1-3 human neuronal calcium channel (human) (UniProt Q02641); test: Bmax of 125I-ω-CgTx GVIA binding, against α1B-2α2bβ1-3
# [16] = target: α1B-1α2bβ1-3 human neuronal calcium channel (human) (UniProt Q02641); test: Bmax of 125I-ω-CgTx GVIA binding, against α1B-1α2bβ1-2
# [17] = target: α1B-1α2bβ1-3 human neuronal calcium channel (human) (UniProt Q02641); test: Bmax of 125I-ω-CgTx GVIA binding, against α1B-1β1-3
# [18] = target: α1B-2α2bβ1-2 human neuronal calcium channel (human) (UniProt Q02641); test: Bmax of 125I-ω-CgTx GVIA binding, against α1B-2β1-2
# [19] = target: α1B-1α2bβ1-2 human neuronal calcium channel (human) (UniProt Q02641)
# 125I-ω-CgTx GVIA, sequence (P01522 46-72 limits assumed): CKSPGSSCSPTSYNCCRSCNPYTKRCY
# α1B-1α2bβ1-2 human neuronal calcium channel (human), sequence (Q02641 whole entry): as the sequence (Q02641 whole entry) above
# α1B-2α2bβ1-3 human neuronal calcium channel (human), sequence (Q02641 whole entry): as above
substance,measurement,setting,value
125I-ω-CgTx GVIA (from UniProt P01522 46-72) (peptide),fold change of binding sites per cell,[1],2.5 fold
same,fold change of binding capacity,[2],2 fold
same,fold change of surface receptor density,[3],8 fold
same,fold change of surface binding,[4],8 fold
same,fold change of surface binding,[5],10 fold
same,fold change of surface receptor density,[6],13 fold
same,Bmax,[7],19400 sites/cell
same,Kd,[7],0.053 nM
same,Bmax,[8],2130 sites/cell
same,Kd,[8],0.0164 nM
same,Bmax,[9],2940 sites/cell
same,Kd,[9],0.0222 nM
same,Bmax,[10],45300 sites/cell
same,Kd,[10],0.0549 nM
same,Bmax,[11],5760 sites/cell
same,Kd,[11],0.0179 nM
same,Bmax,[12],37700 sites/cell
same,Kd,[12],0.0443 nM
same,Bmax,[13],8730 sites/cell
same,Kd,[13],0.0179 nM
same,Bmax,[14],91000 sites/cell
same,Kd,[14],0.0532 nM
same,fold change of binding sites per cell,[15],2.5 fold
same,fold change of binding capacity,[16],2 fold
same,fold change of surface receptor density,[17],10 fold
same,fold change of surface receptor density,[18],9 fold
ω-CgTx GVIA (from UniProt P01522 46-72) (peptide),Kd,[19],0.0546 nM
same,binding capacity (Bmax) (sites per cell),[19],28700
